Experiments:
[1] = target: T1, ヒトTFPI(American Diagnostica) (human, UniProt P10646 29-304, limits assumed); test: ELISA screen of Fab lysates on coated human TFPI
T1 construct: Coated on plates (ELISA) or coupled to a CM5 chip (Biacore); also called human TFPI; hTFPI
T1 sequence (looked up): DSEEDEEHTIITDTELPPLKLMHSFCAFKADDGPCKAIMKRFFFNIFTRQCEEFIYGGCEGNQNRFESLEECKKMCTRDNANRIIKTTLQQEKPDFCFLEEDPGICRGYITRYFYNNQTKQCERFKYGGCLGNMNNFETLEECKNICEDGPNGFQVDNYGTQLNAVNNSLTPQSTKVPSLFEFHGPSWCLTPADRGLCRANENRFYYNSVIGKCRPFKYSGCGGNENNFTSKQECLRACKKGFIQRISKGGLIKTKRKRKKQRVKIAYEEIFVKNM

[2] = target: T2, マウスTFPI(R&D System) (mouse, UniProt O54819 29-289, limits assumed); test: ELISA on coated mouse TFPI
T2 construct: also called mouse TFPI; mTFPI
T2 sequence (looked up): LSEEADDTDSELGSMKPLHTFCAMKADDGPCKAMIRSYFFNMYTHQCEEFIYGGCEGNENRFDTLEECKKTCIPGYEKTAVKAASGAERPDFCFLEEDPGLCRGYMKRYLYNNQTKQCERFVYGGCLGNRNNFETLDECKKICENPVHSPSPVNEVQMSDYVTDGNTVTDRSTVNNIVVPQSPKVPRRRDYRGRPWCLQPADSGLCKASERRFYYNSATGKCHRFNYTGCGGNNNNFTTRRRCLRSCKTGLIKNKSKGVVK

[3] = target: T1, ヒトTFPI(American Diagnostica); test: ELISA on coated human TFPI
[4] = target: T2, マウスTFPI(R&D System); test: ELISA on coated mouse TFPI, IgG against Fab
[5] = target: T1, ヒトTFPI(American Diagnostica); test: ELISA on coated human TFPI, IgG against Fab

Binder | binding result [1] | EC50 [2] [nM] | EC50 [3] [nM] | fold change of EC50 against 2G6-Fab [4] [fold] | fold change of EC50 against 2G6-Fab [5] [fold]
TP-2A8 (Fab, V domains shown, Human Fab from HuCAL Gold; also called Fab-2A8; TP-2A8-Fab) VH: QVQLVESGGGLVQPGGSLRLSCAASGFTFRSYGMSWVRQAPGKGLEWVSSIRGSSSSTYYADSVKGRFTISRDNSKNTLYLQMNSLRAEDTAVYYCARKYRYWFDYWGQGTLVTVSS VL: DIELTQPPSVSVAPGQTARISCSGDNLRNYYAHWYQQKPGQAPVVVIYYDNNRPSGIPERFSGSNSGNTATLTISGTQAEDEADYYCQSWDDGVPVFGGGTKLTVLG | binds |  |  |  | 
TP-2G6 (Fab, V domains shown, Human Fab from HuCAL Gold, purified over Ni-NTA; also called 2G6-Fab) VH: QVQLQQSGPGLVKPSQTLSLTCAISGDSVSSSSAAWSWIRQSPGRGLEWLGIIYYRSKWYNDYAVSVKSRITINPDTSKNQFSLQLNSVTPEDTAVYYCARHSMVGFDVWGQGTLVTVSS VL: DIVLTQSPATLSLSPGERATLSCRASQYVTSSYLAWYQQKPGQAPRLLIYGSSRATGVPARFSGSGSGTDFTLTISSLEPEDFATYYCQQYSSSPITFGQGTKVEIKR |  | 5.18 | 0.48 |  | 
2G6−IgG (antibody, V domains shown, also called IgG-2G6; 2G6-IgG) VH: QVQLQQSGPGLVKPSQTLSLTCAISGDSVSSSSAAWSWIRQSPGRGLEWLGIIYYRSKWYNDYAVSVKSRITINPDTSKNQFSLQLNSVTPEDTAVYYCARHSMVGFDVWGQGTLVTVSS VL: DIVLTQSPATLSLSPGERATLSCRASQYVTSSYLAWYQQKPGQAPRLLIYGSSRATGVPARFSGSGSGTDFTLTISSLEPEDFATYYCQQYSSSPITFGQGTKVEIKR |  | 0.51 | 0.22 | 10 | 2
TP-4B7 (Fab, V domains shown, Human Fab from HuCAL Gold) VH: QVQLQQSGPGLVKPSQTLSLTCAISGDSVSSNSAAWSWIRQSPGRGLEWLGIIYKRSKWYNDYAVSVKSRITINPDTSKNQFSLQLNSVTPEDTAVYYCARWHSDKHWGFDYWGQGTLVTVSS VL: DIVMTQSPLSLPVTPGEPASISCRSSQSLVFSDGNTYLNWYLQKPGQSPQLLIYKGSNRASGVPDRFSGSGSGTDFTLKISRVEAEDVGVYYCQQYDSYPLTFGQGTKVEIKR | binds |  |  |  | 

— patent JP2018038398A (dated 2018)
